System: K4 kissing-loop RNA reporter
Experiment: apparent KD of K4 kissing-loop reporter; higher = weaker reporter binding
Details: Eterna round: R107
Protocol: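 RNA-MaP round R107: designed RNA switches with theophylline, tryptophan, arginine or FMN aptamers are transcribed on-chip within common flanks. They are titrated with a labelled K4 kissing-loop RNA reporter in RNA-MaP buffer (100 mM Tris pH 7.5, 80 mM KCl, 4 mM MgCl2), without ligand or with the indicated ligand. Median apparent KD per design.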

[1] = input ligand: theophylline 20 uM
[2] = input ligand: tryptophan 2.4 mM
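Further: bound reporter read as fluorescence of individual clusters on recovered sequencing chips by microscopy, with normalized cluster intensities fitted with a binding model.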

Sequence | apparent KD of K4 kissing-loop reporter (input ligand: FMN 200 uM) | apparent KD of K4 kissing-loop reporter (input ligand: arginine 13.2 mM) | apparent KD of K4 kissing-loop reporter (input ligand: none) | apparent KD of K4 kissing-loop reporter [1] | apparent KD of K4 kissing-loop reporter [2]
GGGAGCAAAGCUCCCGGAUGCUAUAGUCAGGAGGAUAUCUGGAAACAGAGAAGGCCUAAGCCAGUGAUGUUGGCUAUAAGCAUCC | 475 nM | 406 nM | 757 nM | 629 nM | 589 nM
GGGAGUAGUGCGGCCGCCACUGAGAAAGAAGAAGAAUAUAGUGAUGUUAUAUAGGAAGGGAAGAAUAGGACCGGGCAUUAGAUUU [SSTRyptB.Z] | 336 nM | 250 nM | 340 nM | 275 nM | 233 nM
GGGAGUAGUGCGGCCGCCACUGUGAAAGUAGAAGAAUAUAGUGAUGUUAUAUAGGAUUAAAAGAAUAGGACCGGGCAUUAGAUUU [SSTRyptB.W] | 176 nM | 207 nM | 219 nM | 186 nM | 209 nM
GGGUUUGACGGAGGAUAUGCACUGAGGAGGAGAAUAUAGUGAUGUUAUAUAAGAGGAAGGAGAAGAGUAGAAGGCCGUUGGGUUU [SSFMNB.L] | 124 nM | 131 nM | 139 nM | 165 nM | 104 nM
GGUAGCAUGGCGGCCGCCACUAAGAGAGUGAUGUUCUCUUAGUUUUUUGAUGUGUUAUCAAUUCUUAGGACCGGGCCAUGCUACC | 111 nM | 92.4 nM | 98.2 nM | 99.8 nM | 109 nM
GGUAGCAUGGCGGCCGCCACUCGCUAGUGAUGUUAGCGGGAUGAGACAAAGGACAUAACUUUAUCGAGGACCGGGCCAUGCUACC | 88.2 nM | 66.5 nM | 75.8 nM | 62.2 nM | 92.9 nM
GGUAGCAUGGCGGCCGCCACUCUUCAUUAGUGAUGUUAAUGCCGAGUGCGCUAACUCCAACAGGAGAGGACCGGGCCAUGCUACC | 532 nM | 445 nM | 501 nM | 760 nM | 98.8 nM
GGUAGCAUGGCGGCCGCCACUCUUCAUUAGUGAUGUUAAUGCCGAGUGCGCUAACUCCGCCAGGAGAGGACCGGGCCAUGCUACC | 397 nM | 302 nM | 406 nM | 407 nM | 185 nM
GGUAGCAUGGCGGCCGCCACUUAAUCACUCCAGGAUGAGGAAUAUAAGCAGUGAUGUUGCUAAGUAAGGACCGGGCCAUGCUACC | 269 nM | 271 nM | 327 nM | 354 nM | 201 nM
GGUCGCCUGAGCAGUGAUGUUGCAAGGGAAGGAGCGCGUUUUUUCGCAGGUAGGUCGCCCAAAUAAUAAGUUAAACUAGGCGACC [4.)] | 221 nM | 144 nM | 149 nM | 316 nM | 205 nM
GGUGAUGAGCACGAUACCAGCCUCGGAGCCAGUGAUGUUGGCCCAAUUUAAAAUAAGAUAGGCCCUUGGCAGCGUGACGAUGGCU [Rainle] | 727 nM | 727 nM | 711 nM | 466 nM | 643 nM
GGUGCUGUUUGUGCCGCCUUCCUCGUUCCUCGAGGACCGGUACGGCCGCCACUCGAGUGAUGUUUGGGUAGCGAUCCCUGCUAGC [Bdazzled - #14 Exc. Tryptophan A] | 470 nM | 538 nM | 1370 nM | 566 nM | 413 nM
GGUUCUGUUUUAGGUUUAGUGAUGUUGAAUCGAGGACCGGUACGGCCGCCACUCGGUGACGUCGUAACUUUGGAGGUCCUAACCA [theeternabot_exclusion_KL_Trp_A_47] | 764 nM | 642 nM | 665 nM | 658 nM | 438 nM
GUAAGACCGGGACUCCAGUGAUGUUGGAGGCAGGAUAUCCAGUCGAGGAGAAGGGCCAGGGAUAUCGAGCUGCUCGGUUCGUAGU [Rerareatra] | 81.8 nM | 101 nM | 103 nM | 107 nM | 66.5 nM
GUACCUUGGAAACAAGGACAGCUAACCGAAGGAGCGCGUGAAAACGCAGGUAGGUCGCGGUAGCGGAGUGAUGUUCCGCGAGAGC [Same State Arginine A GF 19] | 114 nM | 85.8 nM | 88.8 nM | 103 nM | 108 nM
GUACGCUCCCGAGUGAUGUUCGGUAAUCGCGAGGAUAUCGCUUUUGCGAGAAGGCGCGGAAUGAGGAAACUCGUUCUGAGUGUAC [FMN A 25] | 234 nM | 191 nM | 253 nM | 212 nM | 233 nM
GUACGCUUCCGAGUGAUGUUCGGAAAUCGCUAGGAUAUCGCUUUUGCGAGAAGGAGCGCAAUGAGGAAACUCGUUGUUAGUGUAC [FMN A 27] | 164 nM | 146 nM | 177 nM | 171 nM | 163 nM
GUAGACAGACUGCAAGCCUAGUCUACAGACUAGGAUAUCAGGAAACUGAGAAGGAGUCUACUUGCAGUGAUGUUGCAAGAAUAAU [[F]''-[K]'-[F]'-[F1]-[F2]-[K1]-[K2]_Design4] | 146 nM | 126 nM | 121 nM | 111 nM | 119 nM
GUAUAUCGAACUGAUACCAGAGAAUAUAGCAGUGAUGUUGCAUAUAUGAAUAAGACUCGACUCCCUUGGCAGCGGGAAGAUAUAC [On purpose 2] | 132 nM | 169 nM | 137 nM | 166 nM | 142 nM
GUAUCGCUAGGAGGAUAUUCCGUUUUUCAUAGAAAUGGCUAUGCGGAGUGAUGUUCCGAUUUACCGGAAGAAGGCCUAGUGAUAC [FMN B 23] | 106 nM | 132 nM | 149 nM | 142 nM | 142 nM
GUCCAAACACAGUGAUGUUGUGAAUAUGAAGGAGCGGACGAAAGUCCAGGUAGGUCGCAUAAAGGACACCUACGAAAAGUAGGAA [#SwitchBubble 5 #K4Early] | 172 nM | 201 nM | 228 nM | 222 nM | 159 nM
GUCCCAGUGAUGUUGGUAGGCGAGCGGGAUACCAGCCAAGACUCAGGCCCUUGGCAGCCCACAUAUCCCACGUAGGGAUUAGCUC [Same State - Theophylline A (Freestyle 19)] | 212 nM | 198 nM | 223 nM | 256 nM | 173 nM

Sequence | apparent KD of K4 kissing-loop reporter (input ligand: FMN 200 uM) | apparent KD of K4 kissing-loop reporter (input ligand: arginine 13.2 mM) | apparent KD of K4 kissing-loop reporter (input ligand: none) | apparent KD of K4 kissing-loop reporter [1] | apparent KD of K4 kissing-loop reporter [2]
GUGCAAAGCACCGGCACGAGCAGCCUAAAGGAGGAUAUGACGAAAGUCAGAAGGCCUAGUGAUGUUAGGCCUUGCUUGAGUCGAA [Omei KL FMN A Exc B v1] | 131 nM | 137 nM | 169 nM | 183 nM | 151 nM
GUGCGCGCGGCGGCCGCCACUCGCAUGAGAGUGAUGUUCUCGGGACUGACGCAAGUCAGUCAUGUGAGGACCGGGCCGGGCUGCG [#2 Same State - Tryptophan B Attempt #12 (HarryS)] | 1060 nM | 1640 nM | 447 nM | 769 nM | 423 nM
GUGUAAGUGAUGUUUGCACACACGUCGGAUACCAGAGACUUUAGCCUCCCUUGGCAGCCGCCGGCCAUAAGAGCAAGUCGAUUUA [theeternabot_sameState_KL_Theo_A_20] | 197 nM | 186 nM | 210 nM | 194 nM | 176 nM
GUUACGCAUGGAAGGAGCGCGAUAAUAUUAAGUGAGUGAUGUUCACAAAGAAAAUAAAUAACGCAGGUAGGUCGCCAUGUGUAAC [Ex Arginine B K4 4] | 79.3 nM | 93.1 nM | 80.8 nM | 97.8 nM | 81.8 nM
GUUACGCAUGGAAGGAGCGCGAUUAAAUUUAGUGAGUGAUGUUCACAAAAUAAAACUAAAACGCAGGUAGGUCGCCAUGUGUAAC [Ex Arginine B K4 2] | 171 nM | 196 nM | 188 nM | 198 nM | 159 nM
GUUGAUCAUGGAAGGAGCGCCCAUUGUCGACACGAGUGAUGUUCGUGUCGUUGAUUACGAGGGCAGGUAGGUCGCCGUGUGCUUU [Rabele] | 149 nM | 109 nM | 124 nM | 116 nM | 119 nM
GUUUGGCGGACGGCCGCCACUCGGACGAGUCACAGUGAUGUUGUGGUUUGCCAGUCGACUUCAUCGAGGACCGGGUUUGUCGGGC [Exclusion Tryptophan B GF 20] | 363 nM | 276 nM | 395 nM | 314 nM | 379 nM
UAACAGGCCCUCACCGUCUUAUUUACAGACCGAGGACCGGUACGGCCGCCACUCGUGAAGUGAUGUUUCAAACAAGCGGUAGGAU | 721 nM | 467 nM | 685 nM | 480 nM | 328 nM
UAAUAAAUUCCAGCGAUAUCGCUCUUCGAAGGAGCGGACGAAAGUCCAGGUAGGUCGCGAAGAGUGAUGUUCUUUGCGGCGCUGG [Omei KL Arginine A Exc A v4] | 207 nM | 180 nM | 262 nM | 320 nM | 226 nM
UAAUUUAUCGCAGGAUAUAGCCAUAAACCGGUCCUAAGGGACCUUCUGGGCAGUGAUGUUGCCCGGCUAGAAGGGCGAGUUCACC [Anenlagema] | 115 nM | 105 nM | 116 nM | 103 nM | 105 nM
UAAUUUAUGUCUUUAAUAUAAUAAUCAGAUACCAGUGAUUUAUGACACCCUUGGCAGCUGUAUAGAGUGAUGUUCUUAUGCUUAA [JR_ExcTheophyA_Sub011] | 247 nM | 324 nM | 278 nM | 375 nM | 179 nM
UACAAACGUAGUGAUGUUACGUACUCUGAUACCAGACAACUCUAAGUCCCUUGGCAGCAGUCAUUUUGCUUAUUAUUUUCUCAAA [JR_ExcTheophyA_Sub018] | 86.5 nM | 102 nM | 92 nM | 98.5 nM | 75.2 nM
UAGACCUACUCAGGAUAUCCGCAGUGAUGUUGCGGUUGGCCUGAGCGACAUGAAAAUCUUACUAAAGGAGAAGGGAGAGGGUUAC [Ratiteus] | 123 nM | 79.2 nM | 94.3 nM | 69.7 nM | 88.4 nM
UAGGAGUGAUGUUCCAUAUCUUGAGCCGAAGGAGCGGCAUUAUAGCCAGGUAGGUCGCGGCAGAAGGUACCAGUGAUGUUGGAAA [Same State Arginine A GF5] | 182 nM | 160 nM | 206 nM | 202 nM | 173 nM
UAGGAGUGAUGUUCCUUUAGCAGGUAGGAAGGAGCGCCCAUUUGGGCAGGUAGGUCGCCUACUGGCCCUGAGUUAAACCUUAGGC [#11 K4 Arginine A Same State] | 149 nM | 181 nM | 150 nM | 207 nM | 127 nM
UAGUCCUAGUGAUGGUCAUCACGUGGUGGGCGAGGACCGGUACGGCCGCCACUCGACUUUGCAGUGAUGUUGCAAACCGGACAAU [Exclusion - Tryptophan A (Freestyle 19)] | 333 nM | 322 nM | 311 nM | 354 nM | 298 nM
UAUAUAUGAUGUGAUACCAGUGAAAAGCCAGUGAUGUUGGUAGAACUGGUAUAUAAAUGGCACCCUUGGCAGCACAAUCACGUAU [#28 K4 Theophylline B Exclusion] | 119 nM | 108 nM | 114 nM | 120 nM | 117 nM
UAUAUAUGAUGUGAUACCAGUGAAGAGCCAGUGAUGUUGGUAGAACUGGUAUAUAAAUAACACCCUUGGCAGCACAAUCACGUAU [whbob_Ex_Theo_B_sa97] | 160 nM | 152 nM | 170 nM | 212 nM | 164 nM
UAUGGCGAGGGCCGCAUAUCAUUAAACCAGAAGGAUAUAUGUUACUAUAGAAGGUCUGCCGCUGCGAGUGAUGUUUGGAGUGAUC [theeternabot_sameState_KL_FMN_A_3] | 326 nM | 195 nM | 260 nM | 242 nM | 229 nM
UAUUAAUUGUCAGGAUAUCGAAAUCGAGUGAUGUUCGUAUAUCGACGAUAGUCGAUAUUAUUUAUACGAGAAGGGACAUUAUUUA [JR_SSFMNB_Sub003] | 347 nM | 572 nM | 615 nM | 615 nM | 386 nM
UAUUCUGUUCGAAAGAACGGAAUUUCGGAAGGAGCGAGAGAAAUCUCAGGUAGGUCGCCGAAAUUAUUAGGUAGUGAUGUUACCU [Arginine A K4 5] | 126 nM | 116 nM | 142 nM | 124 nM | 123 nM
UCCGUUGCGGCGGCCGCCACUGACUUAUUGAUUAGGUUGCCAGUGAUGUUGGCCACCGGUCAAUACAGGACCGGGCCAUAGCGGG [Retive] | 160 nM | 208 nM | 259 nM | 148 nM | 110 nM
